We go through 2 molecules from patent US20240092919A1.

For assay [1], the target named is Human T cell receptor on human primary T cells (human) (UniProt P01848). As to the kind of experiment: cell-based or functional assay.
Assay [2] concerns the target Cynomolgus T cell receptor on cynomolgus primary T cells (cynomolgus monkey). Kind of assay: cell-based or functional assay.

Human T cell receptor on human primary T cells (human), sequence (P01848 whole entry, chain 1 of 2): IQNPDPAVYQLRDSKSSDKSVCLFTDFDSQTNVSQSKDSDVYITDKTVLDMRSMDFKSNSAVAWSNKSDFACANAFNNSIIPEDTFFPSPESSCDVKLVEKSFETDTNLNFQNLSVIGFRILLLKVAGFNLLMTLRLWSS
Human T cell receptor on human primary T cells (human), sequence (P01850 whole entry, chain 2 of 2, further chain): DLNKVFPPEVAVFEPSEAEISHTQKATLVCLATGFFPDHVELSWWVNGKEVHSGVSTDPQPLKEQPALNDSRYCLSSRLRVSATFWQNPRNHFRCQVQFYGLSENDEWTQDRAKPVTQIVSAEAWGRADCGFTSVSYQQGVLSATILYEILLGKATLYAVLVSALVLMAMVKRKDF

B1: T017000677 (bispecific antibody)
chain: DVQLVESGGGLVQAGGPLRLSCAASGRTFSSYVMGWFRQAPGKEREFVAAIYWSNGKTQYTDSVKGRFTISGDNAKNTVYLQMNSLNPEDTAVYYCVADKDETGFRTLPIAYDYWGQGTLVTVSSGGGGSGGGGSGGGGSGGGGSGGGGSGGGGSGGGGSEVQLVESGGGVVQPGGSLRLSCVASGYVHKINFYGWYRQAPGKEREKVAHISIGDQTDYADSAKGRFTISRDESKNTVYLQMNSLRPEDTALYYCRALSRIWPYDYWGQGTLVTVSSGGGGSGGGGSGGGGSGGGGSGGGGSGGGGSGGGGSEVQLVESGGGLVQAGGSLRLSCAASGITSKINDMGWYRQTPGNYREWVASITATGTTNYRDSVKGRFTISRDNAKSTVYLQMNSLKPEDTTVYYCNTFPPISNFWGQGTLVTVSSA
In assay [1], B1 displayed a % lysis, KG-1a, Human T cell mediated killing of 65%; a % lysis, MOLM-13, Human T cell mediated killing of 20%; an Average EC50 (M), KG-1a, Human T cell mediated killing of 1.5e-11 M; an Average EC50 (M), MOLM-13, Human T cell mediated killing of 1.2e-11 M. In assay [2], this molecule had a % lysis, MOLM-13, Cynomolgus T cell mediated killing of 54% and an Average EC50 (M), MOLM-13, Cynomolgus T cell mediated killing of 5.1e-12 M.

B2: T017000676 (bispecific antibody)
chain: DVQLVESGGGLVQAGGSLRLSCAASGITSKINDMGWYRQTPGNYREWVASITATGTTNYRDSVKGRFTISRDNAKSTVYLQMNSLKPEDTTVYYCNTFPPISNFWGQGTLVTVSSGGGGSGGGGSGGGGSGGGGSGGGGSGGGGSGGGGSEVQLVESGGGLVQAGGPLRLSCAASGRTFSSYVMGWFRQAPGKEREFVAAIYWSNGKTQYTDSVKGRFTISGDNAKNTVYLQMNSLNPEDTAVYYCVADKDETGFRTLPIAYDYWGQGTLVTVSSGGGGSGGGGSGGGGSGGGGSGGGGSGGGGSGGGGSEVQLVESGGGVVQPGGSLRLSCVASGYVHKINFYGWYRQAPGKEREKVAHISIGDQTDYADSAKGRFTISRDESKNTVYLQMNSLRPEDTALYYCRALSRIWPYDYWGQGTLVTVSSA
In assay [1], B2 came in with a % lysis, KG-1a, Human T cell mediated killing of 41%; a % lysis, MOLM-13, Human T cell mediated killing of 25%; an Average EC50 (M), KG-1a, Human T cell mediated killing of 8.2e-11 M; an Average EC50 (M), MOLM-13, Human T cell mediated killing of 2.3e-11 M. In assay [1], this molecule yielded an IC50 (M), xCELLigence cell killing, Human T cell mediated killing, E:T 15:1 of 1.1e-10 M. In assay [2], this molecule registered a % lysis, KG-1a, Cynomolgus T cell mediated killing of 28%; a % lysis, MOLM-13, Cynomolgus T cell mediated killing of 26%; an Average EC50 (M), KG-1a, Cynomolgus T cell mediated killing of 1.4e-11 M; an Average EC50 (M), MOLM-13, Cynomolgus T cell mediated killing of 2e-11 M.
